Source: patent publication US20210130455A1 (KEIO UNIVERSITY, published 2021)
Changes are numbered by the printed parent chain.

T1: peptide used for immunization (SEQ ID NO:1), ATYPSGHLDM (human and mouse (identical sequence))
T1 construct: Synthetic peptide; also called immunogen peptide; synthetic peptide
T1 peptide: ATYPSGHLDM

T2: mouse AQP3 in cell lysate of HEK293T cells overexpressing mouse AQP3 and a myc-biotinylated tag (mouse, UniProt Q8R2N1 1-292, biotinylated tag (site not given))
T2 construct: also called AQP3 (cell lysate); not shown: myc-biotinylated tag
T2 sequence (looked up): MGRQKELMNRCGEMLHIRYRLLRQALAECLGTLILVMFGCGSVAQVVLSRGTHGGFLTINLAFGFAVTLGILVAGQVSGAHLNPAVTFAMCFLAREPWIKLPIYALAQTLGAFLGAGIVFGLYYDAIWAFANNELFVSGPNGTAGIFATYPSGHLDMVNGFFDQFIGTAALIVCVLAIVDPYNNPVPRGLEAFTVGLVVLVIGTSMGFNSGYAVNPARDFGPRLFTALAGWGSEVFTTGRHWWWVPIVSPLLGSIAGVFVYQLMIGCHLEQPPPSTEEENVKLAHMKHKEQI

T3: human AQP3 on the cell surface (HaCaT cells, A431 cells, HEK293 cells stably overexpressing human AQP3) (human, UniProt Q92482 1-292)
T3 construct: whole, on cells; Membrane water channel; also called human aquaporin 3
T3 sequence (looked up): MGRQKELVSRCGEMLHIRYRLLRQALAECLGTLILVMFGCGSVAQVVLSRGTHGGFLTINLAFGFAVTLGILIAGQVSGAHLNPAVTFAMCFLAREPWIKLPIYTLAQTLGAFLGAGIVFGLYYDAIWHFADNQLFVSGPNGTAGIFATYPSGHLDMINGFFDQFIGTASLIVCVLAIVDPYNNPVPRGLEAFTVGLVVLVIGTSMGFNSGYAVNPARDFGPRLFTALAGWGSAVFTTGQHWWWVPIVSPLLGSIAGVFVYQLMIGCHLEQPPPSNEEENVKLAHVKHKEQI

T4: mouse AQP3 on the cell surface (PAM212 cells, mouse macrophage cells, HEK293 cells stably overexpressing … (mouse, UniProt Q8R2N1 1-292))
T4 construct: whole, on cells; Membrane water channel; also called mouse aquaporin 3
T4 sequence (looked up): T2 sequence (looked up)

B1: antibody B (antibody, mouse IgG2a, kappa, V domains shown)
VH: EVQLVESGGDLVKPGGSLKLSCAASGFTFSSYGMSWVRQTPDKRLEWVATISRGSIYTYYPDSVKGRFTISRDNAKNTLYLQMSSLKSEDTAMYYCARLSLYDYDGARYTMDYWGQGTSVTVSS
VL: DIVMTQSPKFMSTSVGDRVSITCKASQDVGTAVAWYQQKPGQSPKLLIYWASTRHTGVPDRFTGSGSGTDFTLTISNVQSEDLADYFCQQYSSYHTFGAGTKLELKR
notes: also called anti AQP3 mAb B
B2: antibody H (antibody, mouse IgG2a, kappa, V domains shown)
VH: B1 VH with Q3K, G54R, K65Q
VL: B1 VL with V3K, L105I
notes: also called anti AQP3 mAb H
B3: antibody C (antibody, mouse IgG2a, kappa, V domains shown)
VH: QVQLKQSGAELARPGASVKLSCKASGYNFKSYGISWVKQRTGQGLEWIGEIYPGSGNTYYNEKLKGKATLTADKSSSTAYMELRSLTSEDSAVYFCARTYGYDSFPWFAYWGQGTLVTVSS
VL: DIVMTQAAPSVPVTPGESVSISCRSSKSLLHSNGNTYLYWFLQRPGQSPQLLIYRVSNLASGVPDRFSGSGSGTAFTLRISRVEAEDEGVYYCMQHLEYPFTFGAGTKLEIKR
notes: also called anti AQP3 mAb C
B4: antibody D (antibody, mouse IgG2a, kappa, V domains shown)
VH: EVQLQQSGAELVRPGASVTLSCKASGYTFTDYEMHWVQQTPVHGLEWIGGIDPETGGTGYNQKFKGKAILTADKSSSTAYMELRSLTSEDSAVYFCTRHGSYAMDYWGQGTSVTVSS
VL: DIVMTQSPKFMSTSVGDRVSITCKASQDVSTAVAWYQQKPGQSPKLLIYWASTRHTGVPDRFTGSGSGTDYTLTISSVQAEDLALYYCQQHYSTPPTFGGGTRLEIKR
notes: also called anti AQP3 mAb D
B5: antibody E (antibody, mouse IgG2a, kappa, V domains shown)
VH: EVKLLESGAELVRPGASVTLSCKASGYTFTDYEMHWVKQTPVHGLEWIGGIDPESGGTGYNQKFKGKAILTADKSSSTAYMELRSLTSEDSAVYFCTRSGYYGSPLLDYWGQGTTLTVSS
VL: QIVLSQSPAIMSASLGERVTMTCTASSSVSSSYLHWYQQKPGSSPKLWIYSTSNLASGVPARFSGSGSGTSYSLTISSMEAEDAATYYCHQYHRSPPTFGAGTKLEIKR
notes: also called anti AQP3 mAb E
B6: antibody F (antibody, mouse IgG2a, kappa, V domains shown)
VH: QVQLKESGPELVKPGASVKISCKASGYTFTDYYINWVKQRPGQGLEWIGWIFPGSGSTYYNEKFKGKATLTVDKSSSTAYMLLSSLTSEDSAVYFCADYGSSYRYFDVWGAGTTVTVSS
VL: DIVMTQSPAILSASPGEKVTMTCRASSSVSYMHWYQQKPGSSPKPWIYATSYLASGVPARFSGSGSGTSYSLTIGRVEAEDAATYYCQQWSSNPLTFGAGTKLELKR
notes: also called anti AQP3 mAb F
B7: antibody G (antibody, mouse IgG2a, kappa, V domains shown)
VH: QVQLKQSGAELVRPGASVTLSCKASGYTFTDYEMHWVKQTPVHGLEWIGGIDPETGGTAYNQKFKGKAILTADKSSSTAYMELRSLTSEDSAVYYCTRWGAITSFVALRGFAYWGQGTLVTVSS
VL: DIQMTQSPSSLSVSAGEKVTMSCKSSQSLLNSGNQKNYLAWYQQKPGQPPKLLIYGASTRESGVPDRFTGSGSGTDFTLTISSVQAEDLAVYYCQNDHSYPPTFGAGTKLELKR
notes: also called anti AQP3 mAb G
B8: antibody J (antibody, mouse IgG2a, kappa, V domains shown)
VH: QVHLQQSGTELVKPGASVKLSCEASGYTFTSYWMHWVKQRPGQGLEWIGNINPSNGGTNYNEKFKSKATLTVDKSSSTAYMQLSSLTSEDSAVYYCARGGIYYGNYDYYAMDYWGQGTSVTVSS
VL: B3 VL with E88V, A105G
notes: also called anti AQP3 mAb J; Ab
B9: antibody K (antibody, mouse IgG2a, kappa, V domains shown)
VH: QVQLKQSGAELVRPGTSVKVSCKASGYAFTNYLIEWVKQRPGQGLEWIGVINPGSGGTNYNEKFKGKATLTADKSSSTAYMQLSSLTSEDSAVYFCARWGFYYAMDYWGQGTSVTVSS
VL: DIVMTQSPSSLSASLGERVSLTCRASQEISGYLSWLQQKPDGTIKRLIYAASTLDSGVPKRFSGSRSGSDYSLTISSLESEDFADYYCLQYASYPLTFGAGTKLEIKR
notes: also called anti AQP3 mAb K
B10: antibody A (antibody, mouse IgG2a, kappa, V domains shown)
VH: QVQLQQPGAELVRPGASVTLSCKASGYTFTDYEMHWVKQTPVHGLEWIGGVDPETGGTGYNQKFRGKAILTADKSSSTAYMELRSLTSEDSAVYYCARHGGSFYAMDYWGQGTSVTVSS
VL: B4 VL with R103K, I106L
notes: also called anti AQP3 mAb A

Tests used:
[1] = target: T1, peptide used for immunization (SEQ ID …); test: ELISA on the immunogen peptide SEQ ID NO:1
Protocol: Binding of antibodies A, B, C, D, E, F, G, H, J, and K to the peptide used for immunization (SEQ ID NO:1) was tested in an ELISA assay. […] Thus, antibodies A, D, and F may therefore bind to AQP3 at a different epitope.

[2] = target: T2, mouse AQP3 in cell lysate of HEK293T …; test: ELISA on lysate of HEK293T cells overexpressing mouse AQP3 and a myc-biotinylated tag
Excerpt: Cell lysate from HEK293T cells overexpressing mouse AQP3 and a myc-biotinylated tag was used in an ELISA assay to measure the binding of antibodies A, B, C, D, E, F, G, H, J, and K to AQP3. Cell lysate from HEK293T cells overexpressing the myc-biotinylated tag but not AQP3 was used as control.

[3] = target: T3, human AQP3 on the cell surface (HaCaT …); test: fluorescence of a labelled secondary antibody on HaCaT cells; antibody at 10 µg/mL
Protocol: (§1) PAM212 and macrophage cells were reacted with each anti AQP3 antibody (0.1, 1, or 10 μg/mL) at 4° C. for 1 hour. After washing the cells, a fluorescent-labeled anti mouse secondary antibody was added and the reaction was allowed to occur additionally for 1 hour (4° C.). By measuring the fluorescence intensity, the binding property of each anti AQP3 antibody to cells was obtained.
The assay was also performed using HaCaT cells and antibodies A, B, C, D, E, F, G, H, and J at a concentration of 10 μg/mL. Binding of antibodies C, D, E, H, and J to HaCaT cells was statistically significant. The results obtained by performing a FACS assay using HaCaT, which are human epithelial cells, and antibody G, antibody H, or antibody J are shown in FIG. 6A-6C, respectively. HaCaT cells were treated with Cell Dissociation Buffer for 30 minutes at 37° C., and then dislodged and collected. Then, the cells were reacted with 10 μg/mL anti AQP3 antibody at 4° C. for 1 hour. After washing the cells, a fluorescent-labeled anti mouse secondary antibody was added and the reaction was allowed to occur additionally for 1 hour (4° C.). Then, by using a flow cytometer, fluorescence intensity was measured (FIG. 6A to FIG. 6C). FIG. 6A represents the result of a case in which antibody G was used, FIG. 6B represents the result of a case in which antibody H was used, and FIG. 6C represents the result of a case in which antibody J was used. […] The histogram expressed with bold line represents a case in which the anti AQP3 antibody was used while the histogram expressed with thin gray line represents a case as a control in which the anti AQP3 antibody was not used (addition of non-specific IgG). […] Ratio (%) of the cells included in this range (=cells showing positive staining by anti AQP3 antibody) is also shown in the drawing.

[4] = target: T4, mouse AQP3 on the cell surface (PAM212 …); test: FACS on HEK293 cells stably overexpressing mouse AQP3; antibody at 10 µg/mL
Protocol: A FACS assay was also performed using HEK293 cells stably overexpressing mouse AQP3. Cells were incubated with antibody E, H, J, or negative control IgG at a concentration of 10 μg/mL for one hour and then sorted by FACS. Separately, HEK293 cells stably overexpressing human AQP3 were incubated with antibody E at a concentration of 10 μg/mL for one hour and then sorted by FACS.

[5] = target: T4, mouse AQP3 on the cell surface (PAM212 …); test: fluorescence of a labelled secondary antibody on PAM212 cells; antibody at 10 µg/mL
Protocol: as §1
The assay was also performed using PAM212 cells and antibodies A, B, C, D, E, F, G, H, and J at a concentration of 10 μg/mL. Binding of antibodies C, D, E, G, and J to PAM212 cells was statistically significant.

[6] = target: T3, human AQP3 on the cell surface (HaCaT …); test: flow cytometry on HaCaT cells; antibody at 10 µg/mL
Protocol: The assay was also performed using HaCaT cells and antibodies A, B, C, D, E, F, G, H, and J at a concentration of 10 μg/mL. Binding of antibodies C, D, E, H, and J to HaCaT cells was statistically significant. The results obtained by performing a FACS assay using HaCaT, which are human epithelial cells, and antibody G, antibody H, or antibody J are shown in FIG. 6A-6C, respectively. HaCaT cells were treated with Cell Dissociation Buffer for 30 minutes at 37° C., and then dislodged and collected. Then, the cells were reacted with 10 μg/mL anti AQP3 antibody at 4° C. for 1 hour. After washing the cells, a fluorescent-labeled anti mouse secondary antibody was added and the reaction was allowed to occur additionally for 1 hour (4° C.). Then, by using a flow cytometer, fluorescence intensity was measured (FIG. 6A to FIG. 6C). FIG. 6A represents the result of a case in which antibody G was used, FIG. 6B represents the result of a case in which antibody H was used, and FIG. 6C represents the result of a case in which antibody J was used. […] The histogram expressed with bold line represents a case in which the anti AQP3 antibody was used while the histogram expressed with thin gray line represents a case as a control in which the anti AQP3 antibody was not used (addition of non-specific IgG). […]

[7] = target: T4, mouse AQP3 on the cell surface (PAM212 …); test: fluorescence of a labelled secondary antibody on mouse macrophage cells; antibody at 0.1, 1 and 10 µg/mL
Protocol: as §1
The testing was also carried out using solvent (Veh) or a non-specific IgG (IgG) controls. In FIG. 4, the vertical axis represents fluorescence intensity, and the mean fluorescence intensity of each sample is represented by bar height together with standard error.

| Binder | binding result [1] | binding result [2] | binding result [3] | binding result [4] | binding result [5] | binding result [6] | binding result [7] |
| --- | --- | --- | --- | --- | --- | --- | --- |
| B1 | binds | binds |  |  |  |  |  |
| B2 | binds | binds | binds | binds |  |  |  |
| B3 | binds | binds | binds |  | binds |  |  |
| B4 |  | binds | binds |  | binds |  |  |
| B5 | binds | binds | binds |  | binds |  |  |
| B6 |  | binds |  |  |  |  |  |
| B7 | binds | binds |  |  | binds | binds |  |
| B8 | binds | binds | binds |  |  |  | binds |
| B9 | binds | binds |  |  |  |  |  |
| B10 |  | binds |  |  |  |  |  |
